Like-named read-outs stand apart in the source and are kept apart here.
T1: human Protein S (UniProt P07225 42-676)
T1 chain: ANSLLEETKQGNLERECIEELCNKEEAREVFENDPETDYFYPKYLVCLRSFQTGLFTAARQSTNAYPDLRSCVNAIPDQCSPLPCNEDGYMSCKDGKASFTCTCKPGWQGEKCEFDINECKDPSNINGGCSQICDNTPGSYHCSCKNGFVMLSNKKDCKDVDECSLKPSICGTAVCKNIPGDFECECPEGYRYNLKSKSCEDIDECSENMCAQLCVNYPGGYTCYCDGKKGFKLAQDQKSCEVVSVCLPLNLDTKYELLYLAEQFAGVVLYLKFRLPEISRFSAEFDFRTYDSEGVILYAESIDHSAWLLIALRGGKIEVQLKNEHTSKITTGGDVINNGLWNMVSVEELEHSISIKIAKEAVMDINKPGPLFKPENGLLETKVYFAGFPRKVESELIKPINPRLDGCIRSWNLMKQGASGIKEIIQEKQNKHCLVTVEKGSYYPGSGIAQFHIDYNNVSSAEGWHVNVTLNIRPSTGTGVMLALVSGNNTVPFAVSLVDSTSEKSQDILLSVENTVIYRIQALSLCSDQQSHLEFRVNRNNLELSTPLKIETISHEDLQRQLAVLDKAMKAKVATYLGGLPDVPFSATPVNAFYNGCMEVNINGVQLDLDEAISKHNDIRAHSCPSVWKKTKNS

T2: human Protein S (human, UniProt P07225 42-676)
T2 sequence: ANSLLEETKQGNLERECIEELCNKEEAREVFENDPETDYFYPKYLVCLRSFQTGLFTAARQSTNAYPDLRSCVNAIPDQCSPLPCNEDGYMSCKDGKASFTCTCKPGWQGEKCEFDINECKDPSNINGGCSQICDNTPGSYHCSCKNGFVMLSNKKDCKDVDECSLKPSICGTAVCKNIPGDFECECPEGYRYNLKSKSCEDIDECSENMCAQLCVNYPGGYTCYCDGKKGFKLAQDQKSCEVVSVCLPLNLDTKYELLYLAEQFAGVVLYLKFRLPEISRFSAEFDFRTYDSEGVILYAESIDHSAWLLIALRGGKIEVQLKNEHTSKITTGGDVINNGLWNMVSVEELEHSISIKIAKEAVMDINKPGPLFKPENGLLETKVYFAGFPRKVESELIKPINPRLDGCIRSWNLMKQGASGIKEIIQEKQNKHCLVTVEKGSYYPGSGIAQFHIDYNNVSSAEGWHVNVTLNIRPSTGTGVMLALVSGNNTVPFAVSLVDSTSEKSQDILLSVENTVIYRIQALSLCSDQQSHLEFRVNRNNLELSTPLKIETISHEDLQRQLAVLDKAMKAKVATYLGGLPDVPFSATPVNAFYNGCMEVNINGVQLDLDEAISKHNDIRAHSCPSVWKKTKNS


Experiments:
[1] = biological target: T1, human Protein S; assay: LANCE competition
Summary of the method: (§1)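 A homogeneous time-resolved FRET (LANCE) competition format paired europium-labelled Protein S and ULight-labelled streptavidin with a biotinylated tracer peptide, against which unlabelled test peptide was titrated three-fold. With final concentrations of 10 nM Protein S, 100 nM streptavidin and 300 nM tracer in 50 µl, or 2 nM Protein S and 60 nM tracer when a Tecan F500 was used, samples stood 1 hour at room temperature. Emission was read at 665 nm with excitation at 340 nm. Non-linear regression of these signals gave the IC50.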

[2] = biological target: T2, human Protein S; assay: cell-based or functional assay
[3] = biological target: T2, human Protein S; assay: competition ELISA; Protein S coated; competitor biotinylated tracer JBS0684
Experimental: The competition (IC50) ELISA was performed using biotinylated tracer peptide JBS0684 to compete for Protein S-binding with candidate peptides. Peptides that compete with the tracer bind the same region of Protein S as the tracer (and each other). Ninety-six well PolySorp plates (Nunc) were coated with 3 μg/mL Protein S in coating buffer (15 mM Na₂CO₃, 35 mM NaHCO₃, pH 9.6) over night. […] Plates were then washed three times with HNaT. JBS0684 was applied at a concentration corresponding to the EC90 value determined in the binding ELISA. A competitor stock solution of peptide (10 mM) was diluted 1/33.3 in HNaT without HSA, and a serial 1/3 dilution was prepared with HNaT with 3% DMSO. The dilution was further diluted with the biotinylated tracer peptide in a ratio of 1:6 (20 μl competitor dilution and 100 μl tracer peptide). The mixture of competitor and tracer peptide was applied to the Protein S-coated microtiter plate and incubated for 1.5 hours. The plates were washed three times with HNaT. Peptide-Protein S binding was detected by applying HRP-conjugated streptavidin to the microtiter plate, incubating the mixture for one hour, washing the plate three times with HNaT, applying TMB (3,3′5,5′-Tetramethylbenzidin), and detecting the subsequent chromogenic conversion of TMB by HRP. IC50 measurements of peptides are provided herein (see, e.g., Table 3).

[4] = biological target: T2, human Protein S; assay: Biacore (SPR), Protein S immobilized
Summary of the method: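 Kd was derived from kon and koff, which came from fitting surface plasmon resonance sensorgrams to a Langmuir binding model. Measurements used a Biacore 3000 or Biacore T200 with 1000 RU of human full-length Protein S on a […] chip, and peptides were injected at various concentrations in HBS-buffer with 3 mM CaCl₂ and 1% DMSO.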

[5] = biological target: T1, human Protein S; assay: LANCE competition
Summary of the method: as §1

| Binder | IC50 [1] | CAT EC50 [2] | IC50 [3] | further results |
| --- | --- | --- | --- | --- |
| Ac-TGLVSAGWYDYNFDEYREFT-NH2 [JBS2750] | 3.6 nM |  |  |  |
| Ac-TGHVSAGWYDYNLDHYREFT-NH2 [JBS2582] | 7.4 nM | 15 nM | 2.3 nM |  |
| Ac-TGHVSAGWYDYNFDFYREFT-NH2 [JBS2623] | 15.1 nM |  |  |  |
| Ac-TGHVSAGWYDYNFDHYRPFT-NH2 [JBS2645] | 9.4 nM |  |  |  |
| Ac-TGHVSAGWYDYNFDHYFEFT-NH2 [JBS2625] | 6.6 nM | 29 nM | 1.6 nM |  |
| Ac-TGLVSAGWYDYNFDHYWEFT-NH2 [JBS2924] | 3.6 nM |  |  |  |
| Ac-TGHVSAGWYDYNFDHYLEFT-NH2 [JBS2586] | 11 nM | 19 nM | 2.6 nM |  |
| Ac-KGHVSAGWYDYNFDHYREFT-NH2 [JBS2590] | 11.4 nM |  |  |  |
| Ac-AIYVTAGWYDYNNDTYYEFT-NH2 [JBS3283] |  |  |  | Kd [4]: 0.4 nM; koff [4]: 0.000322 s⁻¹; kon [4]: 735000 M⁻¹ s⁻¹; IC50 [5]: 0.9 nM |
| Ac-TGKVSAGWYDYNFDHYREFT-NH2 [JBS2592] | 20 nM | 68 nM | 5.6 nM |  |
| Ac-HWYVSAGWYDYNEDKYYEFE-NH2 [JBS3306] |  |  |  | Kd [4]: 0.4 nM; koff [4]: 0.000402 s⁻¹; kon [4]: 1e+06 M⁻¹ s⁻¹; IC50 [5]: 0.8 nM |
| Ac-TGHVSAGWYDYNFDSYREFT-NH2 [JBS2661] | 7.8 nM | 16 nM | 2.8 nM |  |
| Ac-TGHVSAGWYDYNFDHYREFT-NH2 [JBS2512] | 21.5 nM | 24 nM | 3.9 nM |  |
| Ac-GGHVSAGWYDYNKDHYREFT-NH2 [JBS2676] | 11.6 nM |  |  |  |
| Ac-TGLVSAGWYDYNFDHYIEFT-NH2 [JBS2790] | 3.4 nM |  |  |  |
| Ac-TGLVSAGWYDYNFDHYVEFT-NH2 [JBS2905] | 5.9 nM |  |  |  |
| Ac-EYIVTAGWYDYNKDIYYEFK-NH2 [JBS3263] |  |  |  | Kd [4]: 0.4 nM; koff [4]: 0.000264 s⁻¹; kon [4]: 629000 M⁻¹ s⁻¹; IC50 [5]: 1.2 nM |
| Ac-TGHVSAGWYDYNFDDYREFT-NH2 [JBS2546] | 31 nM | 30 nM | 6.8 nM |  |

| Binder | IC50 [1] | CAT EC50 [2] | IC50 [3] | further results |
| --- | --- | --- | --- | --- |
| Ac-TGLVSAGWYDYNFDIYREFT-NH2 [JBS2788] | 2.2 nM |  |  |  |
| Ac-TSHVSAGWYDYNFDHYREFT-NH2 [JBS2649] | 31.8 nM |  |  |  |
| Ac-SGHVSAGWYDYNFDHYREFT-NH2 [JBS2648] | 18.6 nM |  |  |  |
| Ac-TAHVSAGWYDYNFDHYREFT-NH2 [JBS2516] | 9.9 nM | 21 nM | 3.3 nM |  |
| Ac-TGFVSAGWYDYNFDHYREFT-NH2 [JBS2612] | 17 nM |  |  |  |
| Ac-TGLVSAGWYDYNFDHYTEFT-NH2 [JBS2887] | 4 nM |  |  |  |
| Ac-GGHVSAGWYDYNFDHYREFT-NH2 [JBS2552] | 16.6 nM | 24 nM | 5.5 nM |  |
| Ac-EYYVSAGWYDYNTDTYYEFEC-NH2 (not fully specified (residue 21), Tetramer of JBS3319 monomers with a four arm 10 kD PEG moiety) [JBS3321] |  |  |  | Kd [4]: 0.02 nM; koff [4]: 3.88e-05 s⁻¹; kon [4]: 1.58e+06 M⁻¹ s⁻¹; IC50 [5]: 0.7 nM |
| Ac-TGHVSAGWYDYNADHYREFT-NH2 [JBS2526] |  | 19 nM | 3.6 nM |  |
| Ac-TGHVSAGWYDYNFDKYREFT-NH2 [JBS2604] |  | 19 nM | 4.1 nM |  |
| Ac-TPHVSAGWYDYNFDHYREFT-NH2 [JBS2629] |  | 25 nM | 3.1 nM |  |
| Ac-TGHVSAGWYDYNFDLYREFT-NH2 [JBS2584] |  | 9 nM | 2.7 nM |  |
| Ac-TKHVSAGWYDYNFDHYREFT-NH2 [JBS2591] |  |  | 4.2 nM |  |
| Ac-TGLVSAGWYDNNFDHYREFT-NH2 [JBS2845] | 8.4 nM |  |  |  |
| Ac-LGHVSAGWYDYNFDHYREFT-NH2 [JBS2570] | 18.8 nM |  |  |  |
| Ac-TGHVSAGWYDYNKDHYREFT-NH2 [JBS2602] | 10.9 nM | 30 nM | 3.4 nM |  |
| Ac-TGHVSAGWYDYNFDAYREFT-NH2 [JBS2528] | 18.8 nM | 23 nM | 5.2 nM |  |
